Results published in article PMC6160918, “Stabilization of the CD81 Large Extracellular Loop with De Novo Disulfide Bonds Improves Its Amenability for Peptide Grafting” (Pharmaceutics, 2018).

T1: wild-type human CD81 large extracellular loop (human), P60033
T1 chain: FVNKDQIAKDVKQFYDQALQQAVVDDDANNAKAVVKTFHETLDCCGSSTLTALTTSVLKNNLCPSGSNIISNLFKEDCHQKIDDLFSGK


Experiments:
[1] = biological target: T1, wild-type human CD81 large …; assay: SEC-MALS; Superdex 200 Increase 10/300 GL, PBS with 200 mM NaCl, 0.75 mL/min, 200 µg of protein at about 2 mg/mL loaded; in-line MALS (miniDAWN TREOS II); conditions: remark: other sources report otherwise
[2] = biological target: the molecule itself; assay: not stated; prescreening of mutants expressed in HEK293-6E at a 2-mL scale; how the dimer was seen is not told

stoichiometry N [1]	Binder	stoichiometry N [2]
2	wild-type human CD81 large extracellular loop, P60033 113-201 (domain or fragment) FVNKDQIAKDVKQFYDQALQQAVVDDDANNAKAVVKTFHETLDCCGSSTLTALTTSVLKNNLCPSGSNIISNLFKEDCHQKIDDLFSGK	
	hCD81 LEL variant C10 (Val169Cys/Leu174Cys) (domain or fragment, human, UniProt P60033 113-201, looked up, human CD81, large extracellular loop, fragment Phe113-Lys201; numbering according to PDB entry 1G8Q; Excluded from further analysis because of the dimer it formed; the dimer may be a disulfide-linked one (surmise); source: HEK293-6E, transfected, 2-mL scale (prescreening)) FVNKDQIAKDVKQFYDQALQQAVVDDDANNAKAVVKTFHETLDCCGSSTLTALTTSCLKNNCCPSGSNIISNLFKEDCHQKIDDLFSGK	2
